{
  "source": "patent US20220064329A1",
  "about": "(Novo Nordisk, published 2022)",
  "binders": {"B1": {"name": "mAb0842(OA) (antibody, human IgG4 S228P, kappa)", "heavy": "QVQLQESGPGLVKPSQTLSLTCTVSGYSISSDSAWSWIRQPPGKGLEWIGYIQYSGSTNYNPSLKSRVTISRDTSKNQFSLKLSSVTAADTAVYYCARSVNYYGNSFAVGYWGQGTLVTVSSASTKGPSVFPLAPCSRSTSESTAALGCLVKDYFPEPVTVSWNSGALTSGVHTFPAVLQSSGLYSLSSVVTVPSSSLGTKTYTCNVDHKPSNTKVDKRVESKYGPPCPPCPAPEFLGGPSVFLFPPKPKDTLMISRTPEVTCVVVDVSQEDPEVQFNWYVDGVEVHNAKTKPREEQFNSTYRVVSVLTVLHQDWLNGKEYKCKVSNKGLPSSIEKTISKAKGQPREPQVYTLPPSQEEMTKNQVSLSCAVKGFYPSDIAVEWESNGQPENNYKTTPPVLDSDGSFFLVSRLTVDKSRWQEGNVFSCSVMHEALHNHYTQKSLSLSLGK", "light": "EIVLTQSPATLSLSPGERATLSCRASQGISDYLHWYQQKPGEAPRLLIKYTSQPATGIPARFSGSGSGTDFTLTISSLEPEDFAVYYCQNGHSFPLTFGQGTKLEIKRTVAAPSVFIFPPSDEQLKSGTASVVCLLNNFYPREAKVQWKVDNALQSGNSQESVTEQDSKDSTYSLSSTLTLSKADYEKHKVYACEVTHQGLSSPVTKSFNRGEC", "chain": "not shown", "notes": "also called monovalent humanized 11F2 antibody; one-armed anti-FVII(a) antibody"}},
  "key": {"[1]": {"molecular_target": "T1, FVII(a) variant T185A (human, UniProt P08709 61-466)", "T1 construct": "hFVII alanine variant in cell culture supernatant", "T1 sequence": "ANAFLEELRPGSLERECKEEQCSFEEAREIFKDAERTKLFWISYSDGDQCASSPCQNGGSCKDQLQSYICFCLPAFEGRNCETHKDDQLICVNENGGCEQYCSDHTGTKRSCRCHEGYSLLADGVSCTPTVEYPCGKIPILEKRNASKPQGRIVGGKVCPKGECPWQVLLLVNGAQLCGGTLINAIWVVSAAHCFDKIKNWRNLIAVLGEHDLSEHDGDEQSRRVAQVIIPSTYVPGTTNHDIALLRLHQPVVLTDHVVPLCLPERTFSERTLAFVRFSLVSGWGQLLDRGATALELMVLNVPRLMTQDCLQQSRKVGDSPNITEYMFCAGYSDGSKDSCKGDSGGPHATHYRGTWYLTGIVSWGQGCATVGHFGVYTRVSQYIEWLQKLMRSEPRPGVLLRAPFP", "test": "SPR, ratio of KD to KD of WT"}, "[2]": {"molecular_target": "T2, FVII(a) variant M391A (human, UniProt P08709 61-466)", "T2 construct": "hFVII alanine variant in cell culture supernatant", "T2 sequence": "T1 sequence with A185T, M391A", "test": "SPR, ratio of KD to KD of WT"}, "[3]": {"molecular_target": "T3, FVII(a) variant R113A (human, UniProt P08709 61-466)", "T3 construct": "hFVII alanine variant in cell culture supernatant", "T3 sequence": "T1 sequence with R113A, A185T", "test": "SPR, ratio of KD to KD of WT"}, "[4]": {"molecular_target": "T4, FVII(a) variant H115A (human, UniProt P08709 61-466)", "T4 construct": "hFVII alanine variant in cell culture supernatant", "T4 sequence": "T1 sequence with H115A, A185T", "test": "SPR, ratio of KD to KD of WT"}, "[5]": {"molecular_target": "T1, FVII(a) variant T185A", "test": "SPR, Biacore T200, 25 C; FVII(a) variant captured on anti-Gla Ab 4F6, mAb0842(OA) injected", "procedure": "(§1) The running buffer was prepared by diluting 10-fold the 10×HBS-P buffer (supplied by GE Healthcare) and supplemented with 1 mg/ml BSA and 5 mM CaCl2 to give 10 mM HEPES, 150 mM NaCl, 0.05% v/v Polysorbate 20, pH 7.4, 5 mM CaCl2, 1 mg/ml bovine serum albumin (BSA). […] Regeneration of the chip was achieved using 10 mM HEPES, 150 mM NaCl, 20 mM EDTA, 0.05 v/v Polysorbate 20, pH 7.4. Binding data were analysed according to a 1:1 Kinetic model and steady state analysis using BiaEvaluation 4.1 supplied by the manufacturer (Biacore AB, Uppsala, Sweden). Wherever possible, ka, kd and KD values from 1:1 kinetic fitting model are reported. […] An amino acid residue is considered a hot-spot residue if substitution of that amino acid residue with alanine results in an affinity reduction of ten (10) fold or more relative to the wild type."}, "[6]": {"molecular_target": "T5, FVII(a) variant T130A (human, UniProt P08709 61-466)", "T5 construct": "hFVII alanine variant in cell culture supernatant", "T5 sequence": "T1 sequence with T130A, A185T", "test": "SPR, Biacore T200, 25 C; FVII(a) variant captured on anti-Gla Ab 4F6, mAb0842(OA) injected", "procedure": "as §1"}},
  "note": "Positions count from the first letter of the chain named.",
  "data": [
    {"binder": "B1", "values": [
      {"measurement": "Fold diff (Variant/WT)", "setting": "[1]", "value": 3.3, "unit": "fold"},
      {"measurement": "Fold diff (Variant/WT)", "setting": "[2]", "value": 0.8, "unit": "fold"},
      {"measurement": "Fold diff (Variant/WT)", "setting": "[3]", "value": 1, "unit": "fold"},
      {"measurement": "Fold diff (Variant/WT)", "setting": "[4]", "value": 26.8, "unit": "fold"},
      {"measurement": "Kd", "setting": "[5]", "value": 1.01, "unit": "nM"},
      {"measurement": "Kd", "setting": "[6]", "value": 32.1, "unit": "nM"}
    ]}
  ]
}
